Source: paper PMC7570020, “The PIFs Redundantly Control Plant Defense Response against Botrytis cinerea in Arabidopsis”

T1: GST-PIF5 (Arabidopsis thaliana, UniProt Q84LH8 1-444)
T1 sequence: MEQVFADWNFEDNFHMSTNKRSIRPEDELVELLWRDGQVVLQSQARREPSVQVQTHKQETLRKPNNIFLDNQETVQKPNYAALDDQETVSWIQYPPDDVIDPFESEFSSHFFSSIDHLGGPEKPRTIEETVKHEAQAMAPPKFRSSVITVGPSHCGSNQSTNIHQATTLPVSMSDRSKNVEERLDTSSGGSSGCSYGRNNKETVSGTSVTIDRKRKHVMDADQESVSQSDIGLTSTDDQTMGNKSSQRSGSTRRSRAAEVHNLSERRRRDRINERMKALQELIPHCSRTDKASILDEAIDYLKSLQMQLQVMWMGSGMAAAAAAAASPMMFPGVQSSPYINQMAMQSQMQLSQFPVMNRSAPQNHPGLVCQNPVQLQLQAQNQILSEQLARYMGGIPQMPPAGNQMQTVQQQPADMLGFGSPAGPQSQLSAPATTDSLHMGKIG

T2: GST-PIF4 bHLH (Arabidopsis thaliana, UniProt Q8W2F3 257-306)
T2 chain: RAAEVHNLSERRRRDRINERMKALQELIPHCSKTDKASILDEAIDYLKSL


Key:
GST-PIF5 [1] = target: T1, GST-PIF5; test: EMSA; Chemiluminescent EMSA Kit (Beyotime), manufacturer's protocol; buffer, salt, pH and temperature not stated; conditions: protein: recombinant; tags: N-terminal GST (pGEX); chain copies: 2; label: 5' biotin; blunt
GST-PIF4 bHLH [2] = target: T2, GST-PIF4 bHLH; test: as above; conditions: protein: recombinant; tags: N-terminal GST (pGEX); chain copies: 2; label: 5' biotin; blunt
GST-PIF5 [3] = target: T1, GST-PIF5; test: competition; increasing unlabeled competitor against labeled N1; Chemiluminescent EMSA Kit (Beyotime), manufacturer's protocol; buffer, salt, pH and temperature not stated; conditions: protein: recombinant; tags: N-terminal GST (pGEX); chain copies: 2; label: none; blunt
GST-PIF4 bHLH [4] = target: T2, GST-PIF4 bHLH; test: as above; conditions: protein: recombinant; tags: N-terminal GST (pGEX); chain copies: 2; label: none; blunt

Row | Binder | binding result (GST-PIF5 [1]) | binding result (GST-PIF4 bHLH [2]) | binding result (GST-PIF5 [3]) | binding result (GST-PIF4 bHLH [4])
1 | ERF1 G-box probe (dsDNA) DNA 1: GAGCCAAAAACTTTGAACACGTGCGGGATATCAAATAATCA DNA 2: TGATTATTTGATATCCCGCACGTGTTCAAAGTTTTTGGCTC | binds | binds | – | –
2 | ERF1 competitor (dsDNA) DNA 1: GAGCCAAAAACTTTGAACACGTGCGGGATATCAAATAATCA DNA 2: TGATTATTTGATATCCCGCACGTGTTCAAAGTTTTTGGCTC | – | – | binds | binds
